Data: US11421026B2, “Antibodies that bind human cannabinoid 1 (CB1) receptor” (BIRD ROCK BIO, Inc., priority 2015, dated 2022)
Residue numbers refer to the chain shown, from its start.

B1: PA2LR3-P4C6: phage-derived CB1 binding IgG clone (antibody, V domains shown)
VH: EVQLQQSGAELVRPGSSVKISCKASGYAFSYYWMNWVKQRPGQGLEWIGQIYPGDGDTNYNGKFKGKATLTADKSSSTAYMQLSSLTSEDSAVYFCARSHGNYFPYWGQGTLVTVSA
VL: DIVITQSPAIVSASLGERVTMTCTASSSVSSSYLHWYQQKPGSSPKLWIYSTSNLASGVPARFSGSGSGTSYSLTISSMEAEDAATYYCQQWSSYPLTFGAGTKLEIK
modifications: PA2LR3-P4C6 Heavy Chain Variable region; PA2LR3-P4C6 Light Chain Variable region
B2: PA2LR3-P4G10: phage-derived CB1 binding IgG clone (antibody, V domains shown)
VH: B1 VH with S7F, P105A
VL: B1 VL with I4L, V11M, Y95N, I107L
modifications: PA2LR3-P4G10 Heavy Chain Variable region; PA2LR3-P4G10 Light Chain Variable region
B3: PA2LR3-P3A8: phage-derived CB1 antibody clone (antibody, V domains shown)
VH: B1 VH with F64V, P105A
VL: B1 VL with I4M, V11M, Y95N, I107L
modifications: PA2LR3-P3A8 Heavy Chain Variable Region; PA2LR3-P3A8 Light Chain Variable Region
notes: phage-derived CB1 antibody clone
B4: PA2LR3-P3F8: phage-derived CB1 antibody clone (antibody, V domains shown)
VH: B1 VH with Y31N, K63N
VL: B1 VL with I4L, V11M, I107L
modifications: PA2LR3-P3F8 Heavy Chain Variable Region; PA2LR3-P3F8 Light Chain Variable Region
notes: as for B3
B5: PA2LR3-P5E7: phage-derived CB1 antibody clone (antibody, V domains shown)
VH: B1 VH with Y31N, Y60F, K67R, T69I, K74I, S77N
VL: DIVLTQSPTTMAASPGEKITITCSASSSISSNYLHWYQQKPGFSPKLLIYRTSTLASGVPARFSGSGSGTSYSLTISSMEAEDAATYYCHQYHRSPHTFGSGTKLEIK
modifications: PA2LR3-P5E7 Heavy Chain Variable region; PA2LR3-P5E7 Light Chain Variable region
notes: as for B3
B6: PA2LR3-P6B12: anti-CB1 antibody; HC variable SEQ ID NO: 50, LC variable SEQ ID NO: 54 (antibody, V domains shown)
VH: B1 VH with P105A
VL: B1 VL with D1Q, I4L, V11M, Q90H, W92Y, S93H, S94R, Y95S, T98A, I107L
modifications: PA2LR3-P6B12 Heavy chain variable region; PA2LR3-P6B12 Light chain variable region
B7: PA2LR3-P6G7: anti-CB1 antibody; HC variable SEQ ID NO: 58, LC variable SEQ ID NO: 62 (antibody, V domains shown)
VH: B1 VH with Y27F, Y31N, Y60F, K67R, T69I, K74I, S77N
VL: B1 VL with I4L, V11M, Q90H, W92H, S93H, S94R, Y95S, L97P, I107L
modifications: PA2LR3-P6G7 Heavy chain variable region; PA2LR3-P6G7 Light chain variable region
B8: PA2LR3-P4B1: anti-CB1 antibody; HC variable SEQ ID NO: 42, LC variable SEQ ID NO: 46 (antibody, V domains shown)
VH: B1 VH with Y27F, Y31N, Y60F, K67R, T69I, K74I, S77N
VL: B1 VL with D1Q, I4L, V11M, Q90H, W92Y, S93H, S94R, Y95S, I107L
modifications: PA2LR3-P4B1 Heavy chain variable region; PA2LR3-P4B1 Light chain variable region
B9: PA2LR3-P4B5: anti-CB1 antibody; HC variable SEQ ID NO: 26, LC variable SEQ ID NO: 30 (antibody, V domains shown)
VH: B1 VH with N61S, K63R, M81I
VL: B1 VL with I4L, T5N, V11M, Q90H, W92Y, S93H, S94R, Y95S
modifications: PA2LR3- P4B5 Heavy chain variable region; PA2LR3- P4B5 Light chain variable region
B10: 36E12B6C2 Fab: Fab of 36E12B6C2 (antibody, V domains shown)
VH: B1 VH with E1Q, A28E, E46Q, Q82H, S84T, H100G, Y103P, P105A, Y106F
VL: DIQMTQTSSSLSASLGDRVTFSCRASQDISNYLNWYQQKPDGTVKLLIYYTSRLHSGVTSRFRGSGSGTDYSLTISNLEQEDVATYFCQQGHTLPWSFGGGTKLEIK

Experiments:
[1] = target: T1, CB1 surface expression (CB1 TRex-CHO / TRex-293 cells) (Homo sapiens, UniProt P21554); assay type: cell-based; conditions: for effect on WIN55,212 induced CB1 receptor internalization: antibody 300 nM pre-treatment, 1 μM WIN55,212 1 hour; for CB1 receptor internalization induced by the substance alone: 1 hour
T1 construct: pcDNA4/TO native full length human CB1 receptor construct was transfected into tetracycline inducible system Trex-CHO and Trex-293 cells; expressed in transfected cells; tetracycline induced
Procedure: 5×10^5 cells/well stably expressing CB1 TRex-CHO cells were seeded in a 6-well plate. Tetracycline (1 μg/ml) was added to culture medium for 24 hours to induce CB1 expression. On the day of the experiment, cells were serum starved for 2 hours. Cells were then pre-incubated with CB1 antibody (300 nM), AM6545 (CB1 neutral antagonist) and negative control (BRIL binder) for half an hour. […] Surface expression of CB1 was stained with anti-CB1 N-terminus mouse monoclonal antibody from R&D and the mean fluorescence intensity (MFI) was determined using flow cytometry.
The impact of CB1 antibody on receptor internalization was also investigated. […] Cells were harvested and stained with anti-CB1 N-terminus mouse monoclonal antibody (R&D).
On the day of the experiment, cells were serum starved for 2 hours. Cells were then pre-incubated with CB1 antibody (300 nM), AM6545 (CB1 neutral antagonist) and negative control (BRIL binder) for half an hour. […] Surface expression of CB1 was stained with anti-CB1 N-terminus mouse monoclonal antibody from R&D and the mean fluorescence intensity (MFI) was determined using flow cytometry (Guava).

[2] = target: T2, human CB1 expressing TRex-CHO cells (Homo sapiens, UniProt P21554); assay type: cell-based; conditions: forskolin stimulated TRex-CHO CB1 cells
T2 construct: pcDNA4/TO native full length human CB1 receptor construct was transfected into tetracycline inducible system Trex-CHO and Trex-293 cells; expressed in transfected cells
Procedure: Data analysis was performed using GraphPad Prism software.
Data analysis was performed using GraphPad Prism.

[3] = test system: CB1 receptor signaling, WIN55,212 induced ERK phosphorylation in Trex-CHO CB1 receptor cells; assay: ERK activation assay (western blot); assay type: cell-based, human; conditions: 100 nM
Procedure: (§1) Two days before the experiment, Trex-CHO CB1 receptor cells were seeded at 500,000 cells/well into 6-well plates. 1 μg/mL tetracycline was used to induce CB1 receptor expression after 24 hours. Cells were serum starved for at least two hours before the experiment. […] Cell lysates were harvested and the level of ERK activation was determined by western blot. Anti-ERK and Anti-phospho-specific ERK antibodies were obtained from Cell Signaling Inc.
as §1, with “Trex-CHO CB1 receptor-expressing cells were” for “Trex-CHO CB1 receptor cells were”

[4] = target: A138 iCAPS (human CB1, ICL3 replaced with protein 1 sequence); assay: ELISA binding of IgG/Fab to CB1 iCAPS A138; conditions: IgG and Fab ELISA, Table 8
Procedure: (§2) Purified IgG was tested for binding to purified CB1 receptor (CB1 Conformation Antigen Presenting System (iCAPS)) by ELISA. Non-biotinylated antigens (e.g. empty iCAPS) were coated directly on Maxisorp plates. The primary antibodies were purified IgGs with 1:3 serial dilutions, incubated on the plate for 1 hour. After 3 rounds of washing with PBST, secondary antibodies HRP goat anti-mouse IgG (Abmart) or HRP goat anti-human IgG (Sigma), depending on the species of the IgGs were added and incubated for another hour. The plates were washed three times with PBST, then developed with TMB (Biopanda). HCl was added to the plates to stop the reaction. Absorbance at 450 nm was read on Emax precision microplate reader (Molecular Devices).
(§3) IgG and Fab molecules tested were 36E12B6C2 IgG, 36E12B6C2 Fab, PA13R3-P1C4 IgG, and PA13R3-P1C4 Fab, compared to negative control BRIL binder P1F7 IgG and P1F7 Fab. For IgG antibodies, the secondary antibody used to detect binding was anti-mouse IgG-HRP; for Fabs, the secondary antibody used to detect binding was anti-human IgG-HRP.

[5] = target: A139 iCAPS (human CB1, ICL3 replaced with BRIL); assay: ELISA binding of IgG/Fab to CB1 iCAPS A139; conditions: IgG and Fab ELISA, Table 8
Procedure: as §2, §3

T1 sequence (P21554 whole entry): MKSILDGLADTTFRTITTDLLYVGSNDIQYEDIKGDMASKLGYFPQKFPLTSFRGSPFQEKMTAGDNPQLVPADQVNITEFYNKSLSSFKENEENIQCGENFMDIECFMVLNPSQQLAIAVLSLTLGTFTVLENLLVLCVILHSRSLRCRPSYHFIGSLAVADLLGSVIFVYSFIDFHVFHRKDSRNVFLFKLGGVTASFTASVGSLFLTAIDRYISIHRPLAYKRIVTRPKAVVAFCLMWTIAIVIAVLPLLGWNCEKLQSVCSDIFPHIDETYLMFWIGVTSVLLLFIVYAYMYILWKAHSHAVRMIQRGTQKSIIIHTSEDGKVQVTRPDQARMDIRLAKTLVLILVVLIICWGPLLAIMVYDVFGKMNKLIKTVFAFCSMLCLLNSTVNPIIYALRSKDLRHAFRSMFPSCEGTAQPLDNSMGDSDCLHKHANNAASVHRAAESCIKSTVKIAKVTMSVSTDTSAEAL
T2 sequence (P21554 whole entry): as above

Row | Molecule | effect on WIN55,212 induced CB1 receptor internalization [1] | CB1 receptor internalization induced by the substance alone [1] | further results
1 | Cc1c(C(=O)NN2CCS(=O)(=O)CC2)nn(-c2ccc(Cl)cc2Cl)c1-c1ccc(C#CCCC#N)cc1 [AM6545, reference compound] | blocked | – | effect on cAMP levels without exogenous agonist / mechanism [2]: did not affect cAMP levels
2 | Cc1c(C(=O)c2cccc3ccccc23)c2cccc3c2n1[C@H](CN1CCOCC1)CO3 [WIN55,212, reference compound] | – | – | ERK activation by agonist [3]: induced ERK activation
3 | B1 | do not block | do not induce | –
4 | B2 | do not block | do not induce | –
5 | B3 | do not block | do not induce | –
6 | B4 | do not block | do not induce | –
7 | B5 | do not block | do not induce | –
8 | B6 | do not block | do not induce | –
9 | B7 | do not block | do not induce | –
10 | B8 | do not block | do not induce | –
11 | B9 | do not block | do not induce | –
12 | B10 | – | – | EC50 [4]: 1020 pM; EC50 [5]: 805 pM
